The target of data set [1] is T1, CHOK1-hCD47 cells highly expressing human CD47 (Homo sapiens, UniProt Q08722).
T1 construct: host or cells: CHOK1-hCD47 (CHO-K1)
Description: FACS binding to cells highly expressing CD47. The following applies: flow cytometry FACS. The protocol:
The binding ability of the antigen-binding protein to CHOK1-hCD47 cells (GenScript, M00581) highly expressing human CD47 was determined by flow cytometry FACS. Specifically, the cells were digested and resuspended in a DMEM complete medium, and the cell density was adjusted to 1×10^6 cells/mL. The cells were seeded in a 96-well V-bottom plate (Corning, #3894) at 100 µL/well, followed by the addition of test binding proteins diluted in a 3-fold gradient at a concentration that was 2 times the final concentration, each at 100 μL/well. The cells were incubated at 4° C. for 1 h away from light. Thereafter, the cells in each well were rinsed twice with 100 μL of pre-cooled PBS, and centrifuged at 500 g at 4° C. for 5 min, and then the supernatant was discarded. Thereafter, a fluorescent secondary antibody (Alexa Fluor 488-conjugated AffiniPure Goat Anti-Human IgG, Fcγ Fragment Specific, Jackson ImmunoResearch Inc., #109-545-098, diluted in a 1:500 ratio) was added at 100 μL/well, and the plate was incubated at 4° C. for 30 min away from light. The cells in each well were then rinsed twice with 100 μL of pre-cooled PBS and centrifuged at 500 g at 4° C. for 5 min, and then the supernatant was discarded. […] Fluorescence signal values were read using a BD FACS CANTOII flow cytometer, and the data were processed and analyzed using FlowJo v10 (FlowJo, LLC) software.

A short description of data set [2]: Molecular weight and coupling product components (DAR) by LC-MS. Particulars: coupling product without HIC purification, protein 4.1 mg/mL. The text has this: In this example, liquid chromatography-mass spectrometry (LC-MS) was used to analyze the protein sample for molecular weight. Those skilled in the art can use different models of liquid chromatography (LC) and mass spectrometer (MS) to establish similar analytical methods according to the technical instructions and through experimental exploration. Only representative methods are listed in this example.
In certain specific embodiments, determination of the molecular weight of a protein sample required desaccharification on the sample to remove modifications such as saccharide chains, for example, the sample was processed with glycosidase PNGase F (NEB, #P0705L) at 37° C. for at least 4 h. For example, in all examples of the present invention, when the molecular weight of protein samples was determined, unless otherwise emphasized, the protein samples to be tested were subjected to desaccharification by the glycosidase PNGase F.
In certain specific embodiments, determination of the reduced molecular weight of a protein sample required reduction on the sample, for example, the sample was processed with […] dithiothreitol (DTT) at 37° C. for 10 min. For example, in all examples of the present invention, the samples after reduction were called reduced samples, and the samples without reduction were called non-reduced samples.
Buffer A was 0.1% formic acid FA dissolved in water, and buffer B was 0.1% formic acid FA dissolved in acetonitrile. Injection: about 1 μg; flow rate: 0.3 mL/min; and operation temperature: 80° C. When reduced samples were tested, buffer A and buffer B were mixed within 12 min to form a linear gradient: using 10-60% B for the first 8 min and 80% B for the last 4 min. When non-reduced samples were tested, buffer A and buffer B were mixed within 9 min to form a linear gradient: using 15-60% B for the first 6 min and 80% B for the last 3 min.
Buffer A was 0.1% formic acid FA dissolved in water, and buffer B was 0.1% formic acid FA dissolved in acetonitrile. Injection: about 10 μL; flow rate: 0.2-0.5 mL/min; and operation temperature: 80° C. […]

Another data set deals with HEK293T-hBCMA cells. Nature of the data set: Cytotoxic killing experiment (Example 9.5), HEK293T-hBCMA. The following applies: 72 h, CellTiter-Glo; proteins up to 10 nM, mc-vc-PAB-MMAE up to 20 nM. The procedure: (§1) The HEK293T-hBCMA, NCI-H929, HEK293T and SNU-16 cells were seeded in 96-well plates (Perkin Elmer, #6005225) respectively, with the following seeded cell number: 2500 cells/50 μL/well (HEK293T-hBCMA), 5000 cells/50 μL/well (NCI-H929), 2500 cells/50 μL/well (HEK293T), and 5000 cells/50 μL/well (SNU-16). Then, the plates were incubated overnight at 37° C. with 5% CO2. Then, a test sample serially pre-diluted was added at 50 μL/well. PR004433, PR004433-ADC and PR004432-ADC were diluted at a 3-fold concentration gradient from the highest final concentration of 10 nM, and mc-vc-PAB-MMAE was diluted at a 3-fold concentration gradient from the highest final concentration of 20 nM. In addition, a well without the test sample was set as a control well. Thereafter, the plates were incubated at 37° C. with 5% CO2 for 72 h, a CellTiter-Glo cell viability detection reagent (Promega, #G7573) was added, then the plates were incubated at room temperature for at least 10 min to obtain stable luminescence signals, and the luminescence values were detected using a microplate reader. The cell viability was calculated based on the luminescence values by the following formula: […]
(§2) The data were processed and analyzed by plotting using GraphPad Prism 8 software, and binding curves of the antibodies to target cells, EC50 values and other parameters were obtained through four-parameter nonlinear fitting.

For data set [3], the system named is NCI-H929 cells. Nature of the data set: Cytotoxic killing experiment (Example 7.5), NCI-H929. The following applies: 72 h, CellTiter-Glo; PR001046-ADC at 0.1 μg/mL and above; PR001046 0.01-1 μg/mL; mc-vc-PAB-MMAE 0.1-10 nM. The class given is cell-based, human. The source says: The data were processed and analyzed by plotting using a GraphPad Prism 8 software. In this example, multiple groups of different PR001046-ADC samples were used, including samples containing different percentages of DAR=2 (D2) components before or after purification.

Data set [4] has as its system NCI-H929 cells. Nature of the data set: Cytotoxic killing experiment (Example 9.5), NCI-H929. Particulars: 72 h, CellTiter-Glo; proteins up to 10 nM, mc-vc-PAB-MMAE up to 20 nM. The procedure: as §1
The data were processed and analyzed by plotting using GraphPad Prism 8 software, and binding curves of the antibodies to target cells, EC50 values and other parameters were obtained through four-parameter nonlinear fitting. […]

The test system of a further data set is HCC1954 cells. Nature of the data set: Cytotoxic killing experiment (Example 8.5), HCC1954. The following applies: 72 h, CellTiter-Glo; proteins up to 30 nM, mc-vc-PAB-MMAE up to 60 nM. The protocol: This example was to study the cell killing activity of the anti-5T4 antibody coupling product PR004432-ADC against a human breast cancer cell strain HCC1954 (ATCC, CRL-2338) highly expressing human 5T4.
The HCC1954 cells were seeded in a 96-well plate (Perkin Elmer, #6005225) at 4000 cells/50 μL/well and incubated overnight at 37° C. with 5% CO2. Then, a test sample serially pre-diluted was added at 50 μL/well. PR004432, PR004432-ADC and PR004433-ADC were diluted at a 3-fold concentration gradient from the highest final concentration of 30 nM, and mc-vc-PAB-MMAE was diluted at a 3-fold concentration gradient from the highest final concentration of 60 nM. In addition, a well without the test sample was set as a control well. Thereafter, the plates were incubated at 37° C. with 5% CO2 for 72 h, a CellTiter-Glo cell viability detection reagent (Promega, #G7573) was added, then the plates were incubated at room temperature for at least 10 min to obtain stable luminescence signals, and the luminescence values were detected using a microplate reader. The cell viability was calculated based on the luminescence values by the following formula:
Cell viability (%)=(A/B)×100% […]
as §2

T1 sequence (Q08722 19-323): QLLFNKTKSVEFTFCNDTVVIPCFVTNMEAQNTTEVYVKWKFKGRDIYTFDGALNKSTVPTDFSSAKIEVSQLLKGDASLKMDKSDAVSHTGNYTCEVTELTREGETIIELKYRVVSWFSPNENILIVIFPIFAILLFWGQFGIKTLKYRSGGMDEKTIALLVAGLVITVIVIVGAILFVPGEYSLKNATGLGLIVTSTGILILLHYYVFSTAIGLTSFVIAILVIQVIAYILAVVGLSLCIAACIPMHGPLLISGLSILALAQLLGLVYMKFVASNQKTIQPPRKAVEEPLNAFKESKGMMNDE

On to “PR006345: SIRPa-Fc fusion protein: ALX148 SIRPa variant fused with human IgG1 hinge and Fc, SEQ ID NO: 149”, for which, in data set [1], the “binding activity to CD47 (CHOK1-hCD47 cells)” value is on record as “strong specific binding activity”. Moreover, the “Average DAR” value is 1.89 in data set [2] (Experiment 1, TCEP 1.5 equivalents); 2.23 in data set [2] (Experiment 2, TCEP 2.0 equivalents); 2.91 in data set [2] (Experiment 3, TCEP 3.0 equivalents).

With mc-vc-PAB-MMAE [reference compound], the “cytotoxic killing against HEK293T-hBCMA cells” value in the data set on HEK293T-hBCMA cells is “cannot produce effective killing”. For the same substance, in the data set with NCI-H929 cells [3], the “cell killing of BCMA-positive cells NCI-H929” value was “cannot effectively kill”. Further, the “cytotoxic killing against NCI-H929 cells” value in the data set with NCI-H929 cells [4] is reported as “cannot produce effective killing”. For the same substance, the “cytotoxic killing against HCC1954 cells” value in the data set with HCC1954 cells is on record as “only has a killing effect at the highest concentration (60 nM)”.

The values are drawn from patent US20240050583A1, “PROTEIN-DRUG CONJUGATE AND SITE-SPECIFIC CONJUGATING METHOD” (HARBOUR BIOMED (SHANGHAI) CO., LTD, priority 2020, published 2024).
